Values belong to the binder of their own block, whether it stands above or below them.
B4: human HHLA2-mIgG2a fusion protein (Fc fusion, not shown: a dimerising Fc or GST)
chain: IFPLAFFIYVPMNEQIVIGRLDEDIILPSSFERGSEVVIHWKYQDSYKVHSYYKGSDHLESQDPRYANRTSLFYNEIQNGNASLFFRRVSLLDEGIYTCYVGTAIQVITNKVVLKVGVFLTPVMKYEKRNTNSFLICSVLSVYPRPIITWKMDNTPISENNMEETGSLDSFSINSPLNITGSNSSYECTIENSLLKQTWTGRWTMKDGLHKMQSEHVSLSCQPVNDYFSPNQDFKVTWSRMKSGTFSVLAYYLSSSQNTIINESRFSWNKELINQSDFSMNLMDLNLSDSGEYLCNISSDEYTLLTIHTVHVEPSQETASHN
notes: also called hHHLA2-mIgG2a; HHLA2-Fc

Assays:
[1] = target: T1, human HHLA2 expressed on transfected cells (300.19 mouse pre-B cells; CHO cells) (human, UniProt Q9UM44 23-414); assay: flow cytometry, mAb on HHLA2-transfected 300.19 mouse pre-B cells
T1 construct: also called B7-H7; B7H7
T1 sequence: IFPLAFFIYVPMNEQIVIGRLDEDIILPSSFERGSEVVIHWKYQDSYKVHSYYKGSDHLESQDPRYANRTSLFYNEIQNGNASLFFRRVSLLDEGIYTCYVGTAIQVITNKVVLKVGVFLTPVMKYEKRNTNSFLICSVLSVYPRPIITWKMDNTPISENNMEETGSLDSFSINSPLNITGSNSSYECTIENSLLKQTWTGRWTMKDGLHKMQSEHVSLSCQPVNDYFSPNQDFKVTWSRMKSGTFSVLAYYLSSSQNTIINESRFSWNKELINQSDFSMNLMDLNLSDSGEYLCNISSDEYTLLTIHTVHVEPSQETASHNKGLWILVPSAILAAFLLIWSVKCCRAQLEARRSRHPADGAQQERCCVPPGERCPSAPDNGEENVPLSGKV

[2] = target: T1, human HHLA2 expressed on transfected …; assay: flow cytometry, mAb titrated on human HHLA2-transfected 300.19 pre-B cells
Experimental: (§1) Binding of different HHLA2 mAbs to human and cynomolgus monkey HHLA2 was also tested and EC50 binding analysis was conducted (FIGS. 13A and 13B). […] HHLA2 mAb binding to transfected 300.19 cells was detected with PE-labeled goat anti-mouse IgG (H+L). EC50 analysis was conducted using Graph Pad Prism.

[3] = target: T2, cynomolgus monkey HHLA2 expressed on transfected 300.19 pre-B cells (cynomolgus monkey); assay: flow cytometry, mAb titrated on cynomolgus monkey HHLA2-transfected 300.19 pre-B cells
T2 construct: whole, on cells
Experimental: FIGS. 13A and 13B show HHLA2 mAb binding to human and cynomolgus monkey HHLA2. […] HHLA2 mAb binding to transfected 300.19 cells was detected with a PE-labeled goat anti-mouse IgG (H+L) by flow cytometry.
as §1

[4] = target: T1, human HHLA2 expressed on transfected …; assay: flow cytometry, mAb titrated on HHLA2-transfected 300.19 pre-B cells, PE goat anti-mouse IgG
Experimental: (§2) HHLA2 mAb cell binding and receptor blockade experiments were then performed. […] HHLA2 mAb binding to transfected 300.19 cells was detected with PE-labeled goat anti-mouse IgG (H+L). For HHLA2 mAb blocking experiments different concentration of HHLA2 mAbs were pre-incubated with 4 ug/ml of HHLA2-mIgG2a at a 1:1 ratio for 30 minutes and added to either TMIGD2 or KIR3DL3 transfected 293T cells and incubated for 30 minutes at 4° C. HHLA2-mIgG2a binding to TMIGD2 or KIR3DL3 transfected 293T cells was detected with a PE labeled Fab2 goat anti-mIgG2a antibody. EC50 and IC50 analyses were conducted using Graph Pad Prism. It was shown that HHLA2 mAb clone 2C4 has desired properties of complete KIR3DL3 blockade and partial TMIGD2 blockade (Table 6).

[5] = target: T1, human HHLA2 expressed on transfected …; assay: as above; remark: listed apart in the source
Experimental: as §1

[6] = target: B4; assay: flow cytometry, mAb pre-incubated with 4 ug/ml HHLA2-mIgG2a; blockade of its binding to TMIGD2-transfected 293T cells
Experimental: as §2

[7] = target: B4; assay: flow cytometry, mAb pre-incubated with 4 ug/ml HHLA2-mIgG2a; blockade of its binding to KIR3DL3-transfected 293T cells
Experimental: as §2

[8] = target: B4; assay: flow cytometry, mAb pre-incubated with 4 ug/ml HHLA2-mIgG2a; blockade of its binding to TMIGD2-transfected 300.19 pre-B cells
Experimental: (§3) HHLA2 mAb binding to transfected 300.19 cells was detected with PE-labeled goat anti-mouse IgG (H+L). […] EC50 and IC50 analyses were conducted using Graph Pad Prism. It was shown that HHLA2 mAb clone 2C4 has desired properties of complete KIR3DL3 blockade and partial TMIGD2 blockade (Table 7).

[9] = target: B4; assay: flow cytometry, mAb pre-incubated with 4 ug/ml HHLA2-mIgG2a; blockade of its binding to KIR3DL3-transfected 300.19 pre-B cells
Experimental: as §3

[10] = target: B4; assay: cell microarray, soluble HHLA2-mIg fusion protein on transfected HEK293 cells
[11] = target: T1, human HHLA2 expressed on transfected …; assay: flow cytometry, staining and sorting of HHLA2-transfected 300.19 cells
Experimental: In particular, binding affinity for each anti-HHLA2 antibody was assayed. The HHLA2 cDNA and a vector encoding puromycin resistance were co-transfected by electroporation (300 volts, 1600 microfarads) into mouse 300.19 cells and selected with media containing 5 μg/ml puromycin. Cells expressing HHLA2 were identified by staining with TMIGD2-human Fc fusion protein and goat anti-human Fc antibody conjugated to phycoerythrin and single cell sorted by flow cytometry. Expression of HHLA2 in individual clones was confirmed by flow cytometry as described above. HHLA2-transfected 300.19 cells were titrated with anti-HHLA2 mAbs (FIG. 1A).

[12] = target: T3, KIR2DL1 (human, UniProt P43626 22-348); assay: cell microarray, HHLA2-mIgG2a on fixed transfected HEK293 cells, AF647 anti-mouse IgG detection
T3 construct: whole, on cells
T3 sequence (P43626 22-348): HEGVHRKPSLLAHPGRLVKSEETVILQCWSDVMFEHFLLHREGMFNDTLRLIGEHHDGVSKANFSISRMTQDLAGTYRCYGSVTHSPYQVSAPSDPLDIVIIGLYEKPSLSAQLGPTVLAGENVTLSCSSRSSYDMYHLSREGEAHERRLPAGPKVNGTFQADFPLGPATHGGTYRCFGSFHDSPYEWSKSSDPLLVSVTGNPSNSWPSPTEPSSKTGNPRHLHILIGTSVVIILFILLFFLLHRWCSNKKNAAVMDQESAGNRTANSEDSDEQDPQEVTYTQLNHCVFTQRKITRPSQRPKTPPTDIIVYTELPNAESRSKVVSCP
Experimental: (§4) Human HHLA2-mIgG2a fusion protein was added to slides of fixed, transfected HEK293 cell slides at a 20 ug/ml concentration, and the protein was detected with an AF647 labeled anti-mouse IgG detection antibody. Two replicate slides were screened for each of the 13 slide sets. Fluorescent images were analyzed and quantitated (for transfection efficiency) using ImageQuant software (GE). A protein ‘hit’ was defined as duplicate spots showing a raised signal compared to background levels. This was achieved by visual inspection using the images gridded on the ImageQuant software.
(§5) Addition of the AF647 labeled anti-mouse IgG detection antibody alone in the absence of HHLA2-mIgG2a produced no signal. The selectivity of HHLA2 binding to KIR3DL3 was evaluated using a panel of 14 KIR receptors arrayed on slides.

[13] = target: T4, KIR2DL2 (human, UniProt P43627 22-348); assay: as above
T4 construct: whole, on cells
T4 sequence (P43627 22-348): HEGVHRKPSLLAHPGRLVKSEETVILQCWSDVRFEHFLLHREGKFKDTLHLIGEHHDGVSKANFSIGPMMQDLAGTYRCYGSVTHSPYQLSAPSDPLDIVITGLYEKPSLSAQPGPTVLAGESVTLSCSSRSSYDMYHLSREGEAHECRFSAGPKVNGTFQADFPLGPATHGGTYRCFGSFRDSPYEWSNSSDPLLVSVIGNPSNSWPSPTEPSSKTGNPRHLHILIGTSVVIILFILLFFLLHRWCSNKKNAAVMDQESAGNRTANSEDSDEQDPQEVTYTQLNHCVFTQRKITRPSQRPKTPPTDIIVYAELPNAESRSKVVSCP
Experimental: as §4, §5

[14] = target: T5, KIR2DL4 (human, UniProt Q99706 22-377); assay: as above
T5 construct: whole, on cells
T5 sequence (Q99706 22-377): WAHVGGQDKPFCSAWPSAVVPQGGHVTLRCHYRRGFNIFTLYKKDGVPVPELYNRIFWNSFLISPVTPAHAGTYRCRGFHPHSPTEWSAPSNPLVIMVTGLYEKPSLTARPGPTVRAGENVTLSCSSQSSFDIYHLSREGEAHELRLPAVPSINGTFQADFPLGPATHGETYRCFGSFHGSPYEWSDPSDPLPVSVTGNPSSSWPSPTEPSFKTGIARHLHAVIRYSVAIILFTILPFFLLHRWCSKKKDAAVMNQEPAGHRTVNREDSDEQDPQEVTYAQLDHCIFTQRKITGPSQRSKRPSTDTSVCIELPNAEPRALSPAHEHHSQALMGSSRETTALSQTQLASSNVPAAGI
Experimental: as §4, §5

[15] = target: T6, KIR2DL5A (human, UniProt Q8N109 22-375); assay: as above
T6 construct: whole, on cells
T6 sequence (Q8N109 22-375): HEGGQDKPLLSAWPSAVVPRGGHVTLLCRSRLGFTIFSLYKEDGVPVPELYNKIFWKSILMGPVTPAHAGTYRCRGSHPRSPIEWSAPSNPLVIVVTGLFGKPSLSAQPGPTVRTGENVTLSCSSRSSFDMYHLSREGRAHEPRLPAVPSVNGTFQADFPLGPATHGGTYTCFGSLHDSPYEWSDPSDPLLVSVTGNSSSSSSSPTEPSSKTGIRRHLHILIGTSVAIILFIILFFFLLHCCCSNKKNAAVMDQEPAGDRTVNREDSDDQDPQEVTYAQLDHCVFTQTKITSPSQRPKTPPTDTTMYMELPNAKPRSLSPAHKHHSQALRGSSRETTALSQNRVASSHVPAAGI
Experimental: as §4, §5

[16] = target: T7, KIR2DL5B (human, UniProt Q8NHK3 22-375); assay: as above
T7 construct: whole, on cells
T7 sequence (Q8NHK3 22-375): as the sequence (Q8N109 22-375) above, with N152D, G174S counted along it
Experimental: as §4, §5

[17] = target: T8, KIR3DL1 (human, UniProt P43629 22-444); assay: as above
T8 construct: whole, on cells
T8 sequence (P43629 22-444): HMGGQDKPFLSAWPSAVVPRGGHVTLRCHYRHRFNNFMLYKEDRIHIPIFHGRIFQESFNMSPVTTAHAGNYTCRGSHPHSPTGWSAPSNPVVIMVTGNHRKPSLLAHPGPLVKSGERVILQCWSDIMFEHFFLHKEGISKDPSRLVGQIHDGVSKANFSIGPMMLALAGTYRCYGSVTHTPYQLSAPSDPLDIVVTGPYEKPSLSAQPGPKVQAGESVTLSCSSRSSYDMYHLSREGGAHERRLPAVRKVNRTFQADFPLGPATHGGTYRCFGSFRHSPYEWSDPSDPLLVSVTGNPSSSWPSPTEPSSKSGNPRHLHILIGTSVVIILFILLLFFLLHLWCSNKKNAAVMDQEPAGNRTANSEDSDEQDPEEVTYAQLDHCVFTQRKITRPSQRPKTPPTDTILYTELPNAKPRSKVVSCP
Experimental: as §4, §5

[18] = target: T9, KIR3DS1 (human, UniProt Q14943 22-382); assay: as above
T9 construct: whole, on cells
T9 sequence (Q14943 22-382): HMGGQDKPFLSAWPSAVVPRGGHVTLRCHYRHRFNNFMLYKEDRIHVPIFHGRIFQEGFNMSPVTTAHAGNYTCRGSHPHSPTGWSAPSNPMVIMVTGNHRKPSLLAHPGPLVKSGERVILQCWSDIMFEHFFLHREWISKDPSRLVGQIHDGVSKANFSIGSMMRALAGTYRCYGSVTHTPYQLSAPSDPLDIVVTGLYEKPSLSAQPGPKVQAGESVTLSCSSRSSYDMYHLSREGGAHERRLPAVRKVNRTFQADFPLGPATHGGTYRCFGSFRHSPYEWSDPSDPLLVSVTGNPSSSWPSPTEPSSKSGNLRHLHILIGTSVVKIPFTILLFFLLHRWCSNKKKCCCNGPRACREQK
Experimental: as §4, §5

[19] = target: T10, KIR3DL2 (human, UniProt P43630 22-455); assay: as above
T10 construct: whole, on cells
T10 sequence (P43630 22-455): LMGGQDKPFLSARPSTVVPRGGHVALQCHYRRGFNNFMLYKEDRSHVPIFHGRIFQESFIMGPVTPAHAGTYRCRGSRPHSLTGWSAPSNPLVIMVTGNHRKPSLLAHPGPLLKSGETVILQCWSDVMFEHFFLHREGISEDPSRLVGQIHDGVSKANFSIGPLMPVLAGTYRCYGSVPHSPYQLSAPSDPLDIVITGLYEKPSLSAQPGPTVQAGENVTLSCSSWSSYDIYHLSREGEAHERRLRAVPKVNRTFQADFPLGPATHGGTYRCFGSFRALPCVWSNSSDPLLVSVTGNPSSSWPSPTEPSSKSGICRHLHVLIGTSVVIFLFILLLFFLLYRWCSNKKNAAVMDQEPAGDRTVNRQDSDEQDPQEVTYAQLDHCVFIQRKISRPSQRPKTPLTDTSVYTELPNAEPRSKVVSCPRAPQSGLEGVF
Experimental: as §4, §5

[20] = target: T11, human KIR3DL3 expressed on transfected cells (HEK293 microarray, 293T, 300.19) (human, UniProt Q8N743 26-410); assay: cell microarray, HHLA2-mIgG2a on fixed KIR-transfected HEK293 cells, AF647 anti-mouse IgG detection
T11 construct: also called CD158Z; KIR3DL7
T11 sequence (Q8N743 26-410 H321N limits assumed): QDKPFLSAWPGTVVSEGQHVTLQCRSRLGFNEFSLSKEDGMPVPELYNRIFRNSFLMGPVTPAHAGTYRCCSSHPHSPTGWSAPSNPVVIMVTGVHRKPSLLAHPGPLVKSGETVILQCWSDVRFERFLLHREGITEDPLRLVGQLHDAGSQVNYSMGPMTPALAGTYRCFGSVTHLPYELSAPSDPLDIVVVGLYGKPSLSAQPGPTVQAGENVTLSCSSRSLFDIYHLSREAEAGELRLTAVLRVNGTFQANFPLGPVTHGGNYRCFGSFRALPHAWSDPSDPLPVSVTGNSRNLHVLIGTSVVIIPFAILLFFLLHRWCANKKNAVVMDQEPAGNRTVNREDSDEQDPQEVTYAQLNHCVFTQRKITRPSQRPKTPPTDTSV
Experimental: as §4, §5

B1: anti-HHLA2 monoclonal antibody 6F10 (antibody, IgG1, V domains shown)
VH: QVHLQQSAAELARPGASVKMSCKASGYTFTTYTMHWVKQRPGQGLEWIGHINPSSGYTDYNQKFKDKTTLTADKSSSTAYMQLNSLTSEDSAVYYCARHPWDSDYWGQGTTLTVSS
VL: DIQMTQSPASLSASVGETVTITCRASENIDSYLAWYQQKQGRSPQLLVYAATNLADGVPSRFSGSGSGTQFSLQINRLQSEDVARYYCQHYYITPFTFGSGTKLEIA
notes: also called 499.5.6F10.A4.10; MHC2557
EC50 [1]: 0.25 µg/mL
EC50 [2]: 0.22 µg/mL
EC50 [3]: 0.4 µg/mL
EC50 [4]: 0.25 µg/mL
EC50 [5]: 0.22 µg/mL
IC50 [6]: 0.55 µg/mL
IC50 [7]: 0.9 µg/mL
IC50 [8]: 0.92 µg/mL
IC50 [9]: 0.74 µg/mL

Binder: B4
binding result [12]: no binding (tested: 20 ug/ml)
binding result [13]: no binding (tested: 20 ug/ml)
binding result [14]: no binding (tested: 20 ug/ml)
binding result [15]: no binding (tested: 20 ug/ml)
binding result [16]: no binding (tested: 20 ug/ml)
binding result [17]: no binding (tested: 20 ug/ml)
binding result [18]: no binding (tested: 20 ug/ml)
binding result [19]: no binding (tested: 20 ug/ml)
binding result [20]: binds

The next lines start with the values.

binding result [10]: binds
B2: human TMIGD2 expressed on transfected cells (293T, 300.19, HEK293 microarray, Jurkat) (receptor)
chain: LSVQQGPNLLQVRQGSQATLVCQVDQATAWERLRVKWTKDGAILCQPYITNGSLSLGVCGPQGRLSWQAPSHLTLQLDPVSLNHSGAYVCWAAVEIPELEEAEGNITRLFVDPDDPTQNRNRIASFPGFLFVLLGVGSMGVAAIVWGAWFWGRRSCQQRDSGNSPGNAFYSNVLYRPRGAPKKSEDCSGEGKDQRGQSIYSTSFPQPAPRQPHLASRPCPSPRPCPSPRPGHPVSMVRVSPRPSPTQQPRPKGFPKVGEE
notes: The cDNA used in 293T and 300.19 cells is not tied to an entry in words; also called CD28H; IGPR1

binding result [11]: binds
B3: human TMIGD2-human IgG1 fusion protein (R&D Systems catalog #8316-TR-050) (Fc fusion, UniProt Q96BF3 23-150, looked up)
chain: LSVQQGPNLLQVRQGSQATLVCQVDQATAWERLRVKWTKDGAILCQPYITNGSLSLGVCGPQGRLSWQAPSHLTLQLDPVSLNHSGAYVCWAAVEIPELEEAEGNITRLFVDPDDPTQNRNRIASFPG
notes: Bought reagent; also called TMIGD2-hIgG; TMIGD2-human Fc fusion protein; not shown: human IgG1 Fc portion of the bought fusion protein
